Reference: US20040002450A1, “Y17 - isolated molecules comprising epitopes containing sulfated moieties, antibodies to such epitopes, and uses thereof” (priority 2000, published 2004)
Non-standard residues stand in square brackets, D forms with d. No end group written: not given here. sY = N[C@@H](Cc1ccc(OS(=O)(=O)O)cc1)C(=O)O

Assays:
Conditions in all cases: remark: other sources report otherwise
Y1 scFv [1] = assay: competition ELISA on coated glycocalicin, 0.25 µg/well Y1, peptide 25 µM
Y1 scFv [2] = assay: competition ELISA on coated glycocalicin, 0.25 µg/well Y1, peptide 2.5 µM
Y1 scFv [3] = assay: competition ELISA on coated glycocalicin, 0.25 µg/well Y1, peptide 200 µM
Y1 scFv [4] = assay: competition ELISA on coated glycocalicin, 0.25 µg/well Y1, peptide 0.5 µM
Y1 scFv [5] = assay: competitive FACS, 1 µg Y1-scFv on ~10^7 washed platelets, peptide 200 µM
Y1 scFv [6] = assay: competitive FACS, 1 µg Y1-scFv on ~10^7 washed platelets, peptide 2.5 µM

Sequence of Y1 scFv (chain, as listed by the source): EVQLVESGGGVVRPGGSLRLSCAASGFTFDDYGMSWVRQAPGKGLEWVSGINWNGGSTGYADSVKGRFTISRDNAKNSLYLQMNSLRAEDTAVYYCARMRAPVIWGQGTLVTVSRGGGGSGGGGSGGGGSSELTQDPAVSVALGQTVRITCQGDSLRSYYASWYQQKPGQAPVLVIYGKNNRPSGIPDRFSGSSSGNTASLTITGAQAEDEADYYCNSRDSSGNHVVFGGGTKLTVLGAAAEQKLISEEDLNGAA

GDEGDTDL[sY]D[sY][sY]PEEDTE [P-1-S]
Residual Binding of Y1 (% of baseline) (% of baseline) (Y1 scFv [1]): 25 | Residual Binding of Y1 (% of baseline) (% of baseline) (Y1 scFv [2]): 62 | Residual Binding of Y1 (% of baseline) (% of baseline) (Y1 scFv [3]): 0 | Residual Binding of Y1 (% of baseline) (% of baseline) (Y1 scFv [4]): 89 | Residual Binding of Y1 (% of baseline) (Geo Mean) (% of baseline) (Y1 scFv [5]): 5 | Residual Binding of Y1 (% of baseline) (Geo Mean) (% of baseline) (Y1 scFv [6]): 41
